In patent publication US8557762 (CHILDREN S HOSPITAL OF PHILADELPHIA, dated 2013):
Values joined by “and” are separate entries in the source; they are usually repeats but may differ in a detail not shown here. Equal entries are not always repeated. Where two headings read alike, the source gives them in different places.

Legend:
[1] = target: T1, recombinant venom-derived factor V from Pseudonaja textilis (pt-rFV) (Pseudonaja textilis, UniProt Q7SZN0 31-1460); assay: fluorescent binding measurements, membrane-bound human FXa (data not shown)
T1 construct: mature
T1 sequence: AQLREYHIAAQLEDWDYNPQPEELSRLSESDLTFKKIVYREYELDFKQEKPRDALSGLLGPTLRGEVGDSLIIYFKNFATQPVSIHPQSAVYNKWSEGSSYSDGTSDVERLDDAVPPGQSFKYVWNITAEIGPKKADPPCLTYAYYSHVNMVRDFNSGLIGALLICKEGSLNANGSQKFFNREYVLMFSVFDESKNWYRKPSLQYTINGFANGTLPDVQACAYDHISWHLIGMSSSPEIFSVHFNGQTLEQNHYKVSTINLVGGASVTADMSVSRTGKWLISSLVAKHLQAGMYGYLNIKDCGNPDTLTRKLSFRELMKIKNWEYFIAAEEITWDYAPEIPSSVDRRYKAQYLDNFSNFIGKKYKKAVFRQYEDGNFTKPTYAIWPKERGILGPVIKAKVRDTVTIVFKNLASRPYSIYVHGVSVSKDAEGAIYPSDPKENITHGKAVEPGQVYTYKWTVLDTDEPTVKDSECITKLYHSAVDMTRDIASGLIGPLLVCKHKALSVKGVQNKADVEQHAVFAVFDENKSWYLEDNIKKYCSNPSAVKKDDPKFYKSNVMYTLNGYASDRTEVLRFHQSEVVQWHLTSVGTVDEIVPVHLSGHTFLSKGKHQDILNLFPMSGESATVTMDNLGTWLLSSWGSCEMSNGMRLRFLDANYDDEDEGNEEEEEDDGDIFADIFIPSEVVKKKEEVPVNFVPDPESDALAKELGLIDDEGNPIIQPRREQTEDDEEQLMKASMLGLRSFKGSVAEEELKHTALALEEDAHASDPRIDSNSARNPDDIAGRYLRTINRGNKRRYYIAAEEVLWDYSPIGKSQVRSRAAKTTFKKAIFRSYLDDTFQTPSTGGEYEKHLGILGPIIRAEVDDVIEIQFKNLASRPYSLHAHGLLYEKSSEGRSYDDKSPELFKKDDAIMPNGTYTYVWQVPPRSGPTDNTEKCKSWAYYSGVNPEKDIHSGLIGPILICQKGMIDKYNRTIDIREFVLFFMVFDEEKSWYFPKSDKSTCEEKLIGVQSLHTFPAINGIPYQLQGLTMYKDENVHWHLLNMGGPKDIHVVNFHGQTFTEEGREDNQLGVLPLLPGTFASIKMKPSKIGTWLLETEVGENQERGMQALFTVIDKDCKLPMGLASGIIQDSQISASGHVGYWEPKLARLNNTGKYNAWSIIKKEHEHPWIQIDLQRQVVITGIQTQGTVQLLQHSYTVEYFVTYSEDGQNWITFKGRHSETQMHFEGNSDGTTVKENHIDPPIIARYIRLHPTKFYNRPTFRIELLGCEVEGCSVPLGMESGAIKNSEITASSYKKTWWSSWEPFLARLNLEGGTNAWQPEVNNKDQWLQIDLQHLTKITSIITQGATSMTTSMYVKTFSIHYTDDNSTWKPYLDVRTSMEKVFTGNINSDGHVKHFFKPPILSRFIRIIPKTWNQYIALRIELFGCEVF

[2] = target: T2, pt-rFVa (pt-rFV processed by thrombin) (Pseudonaja textilis, UniProt Q7SZN0 31-772; Q7SZN0 819-1460); assay: as above
T2 sequence (heavy): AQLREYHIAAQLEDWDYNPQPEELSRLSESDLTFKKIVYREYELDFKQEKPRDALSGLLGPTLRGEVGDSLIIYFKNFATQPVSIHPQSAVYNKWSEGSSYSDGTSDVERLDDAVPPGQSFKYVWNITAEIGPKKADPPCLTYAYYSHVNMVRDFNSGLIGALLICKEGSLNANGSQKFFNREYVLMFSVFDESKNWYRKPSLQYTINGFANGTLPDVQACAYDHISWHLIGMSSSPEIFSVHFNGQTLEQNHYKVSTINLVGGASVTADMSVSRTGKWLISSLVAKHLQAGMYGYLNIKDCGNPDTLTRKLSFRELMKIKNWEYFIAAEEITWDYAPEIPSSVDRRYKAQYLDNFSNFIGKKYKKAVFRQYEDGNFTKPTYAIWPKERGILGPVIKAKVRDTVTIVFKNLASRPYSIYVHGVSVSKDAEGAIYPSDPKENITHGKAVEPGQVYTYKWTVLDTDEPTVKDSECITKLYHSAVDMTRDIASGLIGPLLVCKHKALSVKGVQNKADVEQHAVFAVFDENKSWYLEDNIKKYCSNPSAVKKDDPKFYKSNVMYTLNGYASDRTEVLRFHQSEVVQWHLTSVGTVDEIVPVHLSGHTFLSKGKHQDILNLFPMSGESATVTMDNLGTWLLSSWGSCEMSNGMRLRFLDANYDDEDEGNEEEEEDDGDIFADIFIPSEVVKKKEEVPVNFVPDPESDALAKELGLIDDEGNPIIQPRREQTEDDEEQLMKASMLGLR
T2 sequence (light): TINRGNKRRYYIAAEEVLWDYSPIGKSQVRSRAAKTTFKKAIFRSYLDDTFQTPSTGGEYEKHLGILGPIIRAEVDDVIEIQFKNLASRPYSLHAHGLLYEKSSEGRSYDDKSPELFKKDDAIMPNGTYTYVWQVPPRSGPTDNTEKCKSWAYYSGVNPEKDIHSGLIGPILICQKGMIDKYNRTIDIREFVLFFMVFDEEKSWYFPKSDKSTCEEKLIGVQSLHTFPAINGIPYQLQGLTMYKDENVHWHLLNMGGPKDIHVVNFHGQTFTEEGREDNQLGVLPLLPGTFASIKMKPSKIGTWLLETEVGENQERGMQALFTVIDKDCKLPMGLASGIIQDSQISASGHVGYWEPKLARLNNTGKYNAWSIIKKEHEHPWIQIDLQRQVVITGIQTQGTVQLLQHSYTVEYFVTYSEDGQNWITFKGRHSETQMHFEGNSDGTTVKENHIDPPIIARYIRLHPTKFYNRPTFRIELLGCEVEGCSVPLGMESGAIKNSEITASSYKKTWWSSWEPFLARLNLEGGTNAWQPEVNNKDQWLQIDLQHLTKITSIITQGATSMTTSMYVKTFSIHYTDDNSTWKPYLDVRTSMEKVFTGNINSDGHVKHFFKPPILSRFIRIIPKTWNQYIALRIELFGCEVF

[3] = target: T1, recombinant venom-derived factor V from …
[4] = target: hFV-810 (constitutively active partial B-domainless form of human FV) (human, UniProt P12259 29-2224)
[5] = target: T2, pt-rFVa (pt-rFV processed by thrombin)

Sequence of hFV-810 (constitutively active partial B-domainless form of human FV) (P12259 other isoform, or with tags, fused parts or gaps limits assumed): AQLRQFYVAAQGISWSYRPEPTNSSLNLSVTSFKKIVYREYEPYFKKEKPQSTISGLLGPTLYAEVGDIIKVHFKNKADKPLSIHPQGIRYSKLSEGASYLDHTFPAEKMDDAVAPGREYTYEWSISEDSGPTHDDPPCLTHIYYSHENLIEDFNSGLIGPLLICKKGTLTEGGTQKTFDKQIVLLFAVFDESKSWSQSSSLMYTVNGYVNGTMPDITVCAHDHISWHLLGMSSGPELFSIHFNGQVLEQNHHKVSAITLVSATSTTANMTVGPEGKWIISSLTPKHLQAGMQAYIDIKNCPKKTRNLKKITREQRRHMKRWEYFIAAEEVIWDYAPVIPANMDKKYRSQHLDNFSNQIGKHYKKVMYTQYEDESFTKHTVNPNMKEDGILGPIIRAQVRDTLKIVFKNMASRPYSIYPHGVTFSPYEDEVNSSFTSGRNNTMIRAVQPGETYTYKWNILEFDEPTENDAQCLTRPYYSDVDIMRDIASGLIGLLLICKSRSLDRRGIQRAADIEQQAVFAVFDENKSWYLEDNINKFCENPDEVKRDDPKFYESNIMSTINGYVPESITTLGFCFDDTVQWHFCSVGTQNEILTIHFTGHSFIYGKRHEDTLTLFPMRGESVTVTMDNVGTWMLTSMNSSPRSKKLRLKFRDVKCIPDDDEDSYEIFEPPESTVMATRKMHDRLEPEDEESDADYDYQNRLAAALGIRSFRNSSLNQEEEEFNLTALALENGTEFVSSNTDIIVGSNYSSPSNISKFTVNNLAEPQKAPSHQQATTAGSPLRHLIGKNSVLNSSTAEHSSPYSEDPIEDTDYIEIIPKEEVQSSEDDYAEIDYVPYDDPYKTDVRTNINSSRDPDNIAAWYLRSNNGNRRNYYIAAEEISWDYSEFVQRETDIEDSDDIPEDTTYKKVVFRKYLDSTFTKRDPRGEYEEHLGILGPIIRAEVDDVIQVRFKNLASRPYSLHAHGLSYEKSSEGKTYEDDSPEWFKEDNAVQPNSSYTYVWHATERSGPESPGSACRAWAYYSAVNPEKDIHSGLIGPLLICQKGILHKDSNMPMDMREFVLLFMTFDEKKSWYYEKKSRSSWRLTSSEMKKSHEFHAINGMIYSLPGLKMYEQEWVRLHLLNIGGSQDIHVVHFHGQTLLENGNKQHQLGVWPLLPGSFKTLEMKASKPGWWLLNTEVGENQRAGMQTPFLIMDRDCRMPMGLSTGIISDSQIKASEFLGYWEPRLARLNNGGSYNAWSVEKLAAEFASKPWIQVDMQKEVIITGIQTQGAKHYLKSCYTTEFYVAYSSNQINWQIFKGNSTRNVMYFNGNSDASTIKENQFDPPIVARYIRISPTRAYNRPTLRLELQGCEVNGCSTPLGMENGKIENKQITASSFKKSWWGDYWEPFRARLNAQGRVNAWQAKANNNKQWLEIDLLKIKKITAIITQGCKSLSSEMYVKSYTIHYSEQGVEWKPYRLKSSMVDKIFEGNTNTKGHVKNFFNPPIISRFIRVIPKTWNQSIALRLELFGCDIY

B1: human factor Xa (membrane-bound human FXa) (enzyme)
chain 1: ANSFLEEMKKGHLERECMEETCSYEEAREVFEDSDKTNEFWNKYKDGDQCETSPCQNQGKCKDGLGEYTCTCLEGFEGKNCELFTRKLCSLDNGDCDQFCHEEQNSVVCSCARGYTLADNGKACIPTGPYPCGKQTLER
chain 2: IVGGQECKDGECPWQALLINEENEGFCGGTILSEFYILTAAHCLYQAKRFKVRVGDRNTEQEEGGEAVHEVEVVIKHNRFTKETYDFDIAVLRLKTPITFRMNVAPACLPERDWAESTLMTQKTGIVSGFGRTHEKGRQSTRLKMLEVPYVDRNSCKLSSSFIITQNMFCAGYDTKQEDACQGDSGGPHVTRFKDTYFVTGIVSWGEGCARKGKYGIYTKVTAFLKWIDRSMKTRGLPKAKSHAPEVITSSPLK
notes: also called rFXa; human rFXa
[1]
  Kd: > 400 nM
[2]
  Kd: > 400 nM

B2: purified enzymatic subunit of pseutarin C (pt-FXa) (enzyme)
chain 1: ANSLVEEFKSGNIERECIEERCSKEEAREVFEDDEKTETFWNVYVDGDQCSSNPCHYRGICKDGIGSYTCTCLSGYEGKNCERVLYKSCRVDNGNCWHFCKSVQNDIQCSCAEGYLLGEDGHSCVAGGNFSCGRNIKTRNK
chain 2: IVNGMDCKLGECPWQAALVDDKKGVFCGGTILSPIYVLTAAHCINETETISVVVGEIDRSRAETGPLLSVDKVYVHKKFVPPKKSQEFYEKFDLVSYDYDIAIIQMKTPIQFSENVVPACLPTADFANQVLMKQDFGIVSGFGGIFERGPNSKTLKVLKVPYVDRHTCMLSSNFPITPTMFCAGYDTLPQDACQGDSGGPHITAYRDTHFITGIVSWGEGCARKGRYGIYTKLSKFIPWIKRIMRQKLPSTESSTGRL
[3]
  Kd: 3.06 nM and 8.08 nM
[4]
  Kd: 3.76 nM
[5]
  Kd: 3.84 nM and 7.54 nM
